This is an account of results in paper PMC4837182.

As usually defined, the Kd is the constant that tells how readily two partners part at equilibrium. As usually defined, the koff is the rate constant with which the complex falls apart. By kon is commonly meant the rate constant with which the complex forms.

The target in assay [1] is recombinant Plasmodium falciparum Hsp70-1 (PfHsp70-1), full length (Plasmodium falciparum). As to the kind of experiment: SPR; ProteOn XPR36, ligand amine-coupled to GLC chip, analyte 125-2000 nM at 50 μl/min, PBS-Tween with 20 mM EDTA pH 7.4, 25 °C, Langmuir fit; no nucleotide. Background: Surface plasmon resonance follows binding to a sensor surface in real time, without labels.

For assay [2] the target is unchanged. Kind of assay: SPR; ProteOn XPR36, ligand amine-coupled to GLC chip, analyte 125-2000 nM at 50 μl/min, PBS-Tween with 20 mM EDTA pH 7.4, 25 °C, Langmuir fit; with 5 mM ADP.
Assay [3] shares this target. Kind of assay: SPR; ProteOn XPR36, ligand amine-coupled to GLC chip, analyte 125-2000 nM at 50 μl/min, PBS-Tween with 20 mM EDTA pH 7.4, 25 °C, Langmuir fit; with 5 mM ATP.

Turning to “recombinant Plasmodium falciparum Hsp70-z (PfHsp70-z) (natural protein)”, in assay [1], the dissociation constant Kd stood at 59.8 µM, the off-rate (koff) came out at 2.96e-05 s⁻¹ and the association rate constant (kon) was 0.495 M⁻¹ s⁻¹. Moreover, in assay [2], the dissociation constant (Kd) turned out to be 12.1 µM, the koff was determined as 3.61e-05 s⁻¹ and the kon was 298 M⁻¹ s⁻¹. For the same substance, in assay [3], the Kd was determined as 0.0241 µM, the koff came out at 2.42e-05 s⁻¹ and the kon stood at 997 M⁻¹ s⁻¹.
